Source: publication PMC4119599 (Biochemistry, 2011)

Assays:
[1] = tested on: CC(C)(COP(=O)(O)OP(=O)(O)OC[C@H]1O[C@@H](n2cnc3c(N)ncnc32)[C@H](O)[C@@H]1OP(=O)(O)O)[C@@H](O)C(=O)NCCC(=O)NCCSC(=O)CCC(=O)c1ccccc1C(=O)O; assay: purified protein; details: pH 7.0; 25.0 °C
[2] = tested on: CC(C)(COP(=O)(O)OP(=O)(O)OC[C@H]1O[C@@H](n2cnc3c(N)ncnc32)[C@H](O)[C@@H]1OP(=O)(O)O)[C@@H](O)C(=O)NCCC(=O)NCCSC(=O)CCCc1ccccc1C(=O)O; assay: purified protein; details: pH 7.0; 25.0 °C
mtMenB [3] = molecular target: T1, mtMenB (Mycobacterium tuberculosis, UniProt P9WNP5); assay: X-ray co-crystal structure, […] Å; assay type: binding; details: partial occupancy, weak density, acyl part not resolved; pH 8.0
T1 sequence (P9WNP5 whole entry): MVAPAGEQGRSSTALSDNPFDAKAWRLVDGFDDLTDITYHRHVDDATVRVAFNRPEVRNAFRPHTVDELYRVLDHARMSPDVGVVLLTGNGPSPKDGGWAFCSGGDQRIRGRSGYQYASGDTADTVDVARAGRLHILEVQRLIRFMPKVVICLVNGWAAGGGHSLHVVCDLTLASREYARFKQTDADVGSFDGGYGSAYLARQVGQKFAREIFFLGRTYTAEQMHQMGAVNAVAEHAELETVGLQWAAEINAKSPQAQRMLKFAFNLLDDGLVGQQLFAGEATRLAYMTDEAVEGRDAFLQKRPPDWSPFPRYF

ecMenB = ecMenB (Escherichia coli, UniProt P0ABU0); assay: X-ray co-crystal structure, […] Å; assay type: binding; details: all six active sites of the hexamer; stable substrate analogue; pH 6.5
Sequence of ecMenB (P0ABU0 whole entry): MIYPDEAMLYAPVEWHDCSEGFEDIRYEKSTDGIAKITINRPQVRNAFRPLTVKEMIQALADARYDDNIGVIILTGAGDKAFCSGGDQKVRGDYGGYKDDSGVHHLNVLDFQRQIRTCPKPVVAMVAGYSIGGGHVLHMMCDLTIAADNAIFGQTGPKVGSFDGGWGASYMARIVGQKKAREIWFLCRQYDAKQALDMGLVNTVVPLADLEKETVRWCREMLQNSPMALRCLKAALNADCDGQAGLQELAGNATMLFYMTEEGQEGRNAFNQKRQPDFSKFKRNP

mtMenB [4] = molecular target: T1, mtMenB; assay: not stated; assay type: binding
[5] = tested on: CC(C)(COP(=O)(O)OP(=O)(O)OC[C@H]1O[C@@H](n2cnc3c(N)ncnc32)[C@H](O)[C@@H]1OP(=O)(O)O)[C@@H](O)C(=O)NCCC(=O)NCCSC(=O)CCC(=O)c1ccccc1C(=O)O; assay: purified protein; assay type: biochemical, Escherichia coli; details: pH 7.0; 25.0 °C

For (Mycobacterium tuberculosis H37Rv), the Km [1] was 22.4 ± 2.1 µM, the Km [2] was 106 ± 31 µM and the kcat/Km [2] was 2.4 ± 0.7 M⁻¹ s⁻¹.

In the case of CC(C)(COP(=O)(O)OP(=O)(O)OC[C@H]1O[C@@H](n2cnc3c(N)ncnc32)[C@H](O)[C@@H]1OP(=O)(O)O)[C@@H](O)C(=O)NCCC(=O)NCCNC(=O)CCC(=O)c1ccccc1C(=O)O [OSB-NCoA], the “X-ray co-crystal structure, 2.25 Å” value (mtMenB [3]) is reported as “Density for OSB-NCoA can be observed but is weak in chain C” and the “X-ray co-crystal structure, 2.00 Å” value (ecMenB) is reported as “In the structure of OSB-NCoA bound to ecMenB, the ligand can be observed in all six”.

Work on COC(=O)c1ccccc1C(=O)CCC(=O)SCCNC(=O)CCNC(=O)[C@H](O)C(C)(C)COP(=O)(O)OP(=O)(O)OC[C@H]1O[C@@H](n2cnc3c(N)ncnc32)[C@H](O)[C@@H]1OP(=O)(O)O [OSB-CoA methyl ester] yielded a Kd (mtMenB [4]) of 11.5 ± 1.2 µM.

In the case of (Escherichia coli K-12), the Km [5] is reported as 25.9 ± 3.3 µM.
